Experimental data reported in patent publication US20220125919A1.

Experiments:
[1] = target: EBV LMP2A epitope … presented by HLA-A*0201 (human); assay: cell-based or functional assay
[2] = target: HCMV pp65 epitope … presented by HLA-A*0201 (human); assay: cell-based or functional assay

“TCR that recognizes peptide … presented by A*0201 (PDB #3REV)” showed a luciferase induction relative to uninfected controls, short cassette design 9AA [1] of 12, a luciferase induction relative to uninfected controls, short cassette design 17AA [1] of 10.3 and a luciferase induction relative to uninfected controls, short cassette design 25AA [1] of 14.6. The luciferase induction relative to uninfected controls, short cassette design DPP [1] was 1.1 and the luciferase induction relative to uninfected controls, short cassette design RR [1] was 8.5.

“TCR that recognizes peptide … presented by A*0201 (PDB #5D2N)” gave a luciferase induction relative to uninfected controls, short cassette design 9AA [2] of 33.6, a luciferase induction relative to uninfected controls, short cassette design 17AA [2] of 42.8 and a luciferase induction relative to uninfected controls, short cassette design 25AA [2] of 42.3. The luciferase induction relative to uninfected controls, short cassette design DPP [2] was 0.9, the luciferase induction relative to uninfected controls, short cassette design RR [2] was 21.7 and the luciferase induction, in vitro T cell activation assay, short cassette design AAY [2] was 24.5. The luciferase induction, in vitro T cell activation assay, targeting-sequence short cassette design A [2] was 32.5, the luciferase induction, in vitro T cell activation assay, targeting-sequence short cassette design B [2] was 31.8 and the luciferase induction, in vitro T cell activation assay, targeting-sequence short cassette design C [2] was 29.1. The luciferase induction, in vitro T cell activation assay, targeting-sequence short cassette design D [2] was 29.1, the luciferase induction, in vitro T cell activation assay, targeting-sequence short cassette design E [2] was 28.4 and the luciferase induction, in vitro T cell activation assay, targeting-sequence short cassette design F [2] was 20.4. The luciferase induction, in vitro T cell activation assay, targeting-sequence short cassette design G [2] was 35, the luciferase induction, in vitro T cell activation assay, targeting-sequence short cassette design H [2] was 30.3 and the luciferase induction, in vitro T cell activation assay, targeting-sequence short cassette design I [2] was 22.5. It also gave a luciferase induction, in vitro T cell activation assay, targeting-sequence short cassette design J [2] of 38.1.
